target: C4 single-chain Fv antibody (C4 scFv) (human (from a human scFv phage-display …)); experiment: ITC

Row | Ka | Binder
1 | 9.08e+06 M⁻¹ | MATLEKLMKAFESLKS [truncated peptide HTT(1-16)]
2 | 3.09e+06 M⁻¹ | MATLEKLMKAFESL [truncated peptide HTT(1-14)]
3 | 6.87e+06 M⁻¹ | MATLEKLMKAFESLK [truncated peptide HTT(1-15)]
4 | 1.8e+07 M⁻¹ | MATLEKLMKAFESLKSF [HTT(1-17) peptide, the 17 N-terminal residues of huntingtin]

Source: article PMC4451460 (2015)
